# B1: Human His-Gαi3 WT [human] / Fluorescein-labelled RGS12 GoLoco peptide (residues 1,185–1,221) [modified: 5,6-carboxyfluorescein coupled to the resin-bound peptide after chain elongation; 5,6-carboxyfluorescein coupled to the … (parent)
# chain 1: MGCTLSAEDKAAVERSKMIDRNLREDGEKAAKEVKLLLLGAGESGKSTIVKQMKIIHEDGYSEDECKQYKVVVYSNTIQSIIAIIRAMGRLKIDFGEAARADDARQLFVLAGSAEEGVMTPELAGVIKRLWRDGGVQACFSRSREYQLNDSASYYLNDLDRISQSNYIPTQQDVLRTRVKTTGIVETHFTFKDLYFKMFDVGGQRSERKKWIHCFEGVTAIIFCVALSDYDLVLAEDEEMNRMHESMKLFDSICNNKWFTETSIILFLNKKDLFEEKIKRSPLTICYPEYTGSNTYEEAAAYIQCQFEDLNRRKDTKEIYTHFTCATDTKNVQFVFDAVTDVIIKNNLKECGLY
# chain 2: DEAEEFFELISKAQSNRADDQRGLLRKEDLVLPEFLR
# B2: Human His-Gαi3 WT [human] / Fluorescein-labelled DAPLE peptide (residues 1,662–1,695) [modified: 5,6-carboxyfluorescein coupled to the resin-bound peptide after chain elongation; 5,6-carboxyfluorescein coupled to the … (parent)
# chain 1: B1 chain 1
# chain 2: SASPSSEMVTLEEFLEESNRSSPTHDTPSCRDDL
# B3: Human His-Gαi3 WT [human] / Fluorescein-labelled GIV peptide (residues 1,671–1,701) [modified: 5,6-carboxyfluorescein coupled to the resin-bound peptide after chain elongation; 5,6-carboxyfluorescein coupled to the resin-bound … (parent)
# chain 1: B1 chain 1
# chain 2: KTGSPGSEVVTLQQFLEESNKLTSVQIKSSS
# Variants of: B1
# Test: fluorescence polarisation
# Conditions: with Fluorescein-labelled RGS12 GoLoco peptide (residues 1,185–1,221) [modified: 5,6-carboxyfluorescein coupled to the resin-bound peptide after chain elongation
Variant,ratio to parent,Kd
chain 1 K257A,1.58,–
chain 1 L249V,1.54,–
chain 1 L249H,4.89,–
chain 1 W258F,1.15,–
chain 1 L37A,1.46,–
chain 1 N256A,1.42,–
chain 1 N256E,5.78,–
chain 1 S252A,0.644,–
chain 1 S252D,6.17,–
chain 1 F259A,3.43,–
chain 1 L36A,2.18,–

# Results, then the variant that gave them:
ratio to parent,Kd,Variant
2.79,–,chain 1 K35A
1.92,–,chain 1 V218A
1.11,–,chain 1 W211A
1.53,–,chain 1 I184A
3.23,–,chain 1 L39A
1.81,98 nM,chain 1 G42R
10.1,–,chain 1 F215A

# Variants of: B2
# Test: fluorescence polarisation
# Conditions: with Fluorescein-labelled DAPLE peptide (residues 1,662–1,695) [modified: 5,6-carboxyfluorescein coupled to the resin-bound peptide after chain elongation
row,ratio to parent,Variant
1,2,chain 1 F259A

# Variants of: B3
# Test: fluorescence polarisation
# Conditions: with Fluorescein-labelled GIV peptide (residues 1,671–1,701) [modified: 5,6-carboxyfluorescein coupled to the resin-bound peptide after chain elongation
row,ratio to parent,Variant
1,3.59,chain 1 W258F
